We go through one protein from publication PMC8195987, “Structural basis for plazomicin antibiotic action and resistance” (Communications Biology, 2021).

The data set deals with the molecule itself. The data set can be described thus: crystal structure; AAC(2′)-Ia at 10 mg/mL with 10 mM acetyl-CoA and 10 mM plazomicin, sitting-drop vapor diffusion at 4 °C, reservoir 0.2 M LiCl and 40% (v/v) MPD; product-bound state (acetylated plazomicin and CoA).

B1: AAC(2′)-Ia from Providencia stuartii (enzyme)
chain: MGIEYRSLHTSQLTLSEKEALYDLLIEGFEGDFSHDDFAHTLGGMHVMAFDQQKLVGHVAIIQRHMALDNTPISVGYVEAMVVEQSYRRQGIGRQLMLQTNKIIASCYQLGLLSASDDGQKLYHSVGWQIWKGKLFELKQGSYIRSIEEEGGVMGWKADGEVDFTASLYCDFRGGDQW
notes: AAC(2′)-Ia, aminoglycoside 2′-N-acetyltransferase of Providencia stuartii; synthesized aac(2′)-Ia gene cloned in pET-15b between NdeI and BamHI, N-terminal HIS-tag followed by a thrombin cleavage site; the tag was removed with thrombin; Homodimer in the crystal, each unit with acetylated plazomicin and CoA in the active site; also called aminoglycoside 2′-N-acetyltransferase; AAC(2′)-Ia …
Regarding B1, the binding result is on record as “binds”.
